Laboratory results from the RNAGym collection of RNA variant scans (doi:10.7554/elife.80360).

B1: HDV Ribozyme (parent)
chain: GGCCGGCAUGGUCCCAGCCUCCUCGCUGGCGCCGGCUGGGCAACAUUCCGAGGGGACCGUCCCCUCGGUAAUGGCGAAUGGGACCCA

Variants of: B1
Experiment: self-cleavage, relative activity (ratio to wild type); higher = more cleavage; co-transcriptional

| Variant | self-cleavage |
| --- | --- |
| GGCCGGCAUGGUCCCAGCCUCCUCGCUGGCGCCGGCUGGGCAACACUCCGAGGGGACCGUCCCCGCGGUAAUGGCGAAUGGGACCCA [U46C U65G] | 1.09 |
| GGCCGGCAUGGUCCCAGCCUCCUCGCUGGCGCCGGCUGGGCAACAGUCCGAGGGGACCGUUCCCUCGGUAAUGGCGAAUGGGACCCA [U46G C61U] | 0.332 |
| GGCCGGCAUGGUCCCAGCCUCCUCGCUGGCGCCGGCUGGGCAACAGUCCGAGGGGACCGUGCCCUCGGUAAUGGCGAAUGGGACCCA [U46G C61G] | 0.649 |
| GGCCGGCAUGGUCCCAGCCUCCUCGCUGGCGCCGGCUGGGCAACACUCCGAGGGGACCGACCCCUCGGUAAUGGCGAAUGGGACCCA [U46C U60A] | 0.674 |
| GGCCGGCAUGGUCCCAGCCUCCUCGCUGGCGCCGGCUGGGCAACACUCCGAGGGGACCGGCCCCUCGGUAAUGGCGAAUGGGACCCA [U46C U60G] | 0.755 |
| GGCCGGCAUGGUCCCAGCCUCCUCGCUGGCGCCGGCUGGGCAACAGUCCGAGGGGACCGUCCCCUCCGUAAUGGCGAAUGGGACCCA [U46G G67C] | 0.208 |
| GGCCGGCAUGGUCCCAGCCUCCUCGCUGGCGCCGGCUGGGCAACAGUCCGAGGGGACCGUCCCCUCGGUAAUGGCGAAUGGGACUCA [U46G C85U] | 0.831 |
| GGCCGGCAUGGUCCCAGCCUCCUCGCUGGCGCCGGCUGGGCAACAGUCCGAGGGGACCGUCCCCUCGGUAAUGGCGAAUGGGACACA [U46G C85A] | 0.831 |
| GGCCGGCAUGGUCCCAGCCUCCUCGCUGGCGCCGGCUGGGCAACAGUCCGAGGGGACCGUCCCCUUGGUAAUGGCGAAUGGGACCCA [U46G C66U] | 0.673 |
| GGCCGGCAUGGUCCCAGCCUCCUCGCUGGCGCCGGCUGGGCAACACUCCGAGGGGACCGUCCCCUCGGUAAUGGCAAAUGGGACCCA [U46C G76A] | 1.01 |
| GGCCGGCAUGGUCCCAGCCUCCUCGCUGGCGCCGGCUGGGCAACAGUCCGAGGUGACCGUCCCCUCGGUAAUGGCGAAUGGGACCCA [U46G G54U] | 0.443 |
| GGCCGGCAUGGUCCCAGCCUCCUCGCUGGCGCCGGCUGGGCAACAGUCCGAGGCGACCGUCCCCUCGGUAAUGGCGAAUGGGACCCA [U46G G54C] | 0.453 |
| GGCCGGCAUGGUCCCAGCCUCCUCGCUGGCGCCGGCUGGGCAACAGUCCGAGGAGACCGUCCCCUCGGUAAUGGCGAAUGGGACCCA [U46G G54A] | 0.656 |
| GGCCGGCAUGGUCCCAGCCUCCUCGCUGGCGCCGGCUGGGCAACAGUACGAGGGGACCGUCCCCUCGGUAAUGGCGAAUGGGACCCA [U46G C48A] | 0.903 |
| GGCCGGCAUGGUCCCAGCCUCCUCGCUGGCGCCGGCUGGGCAACAGUCCGAGGGGACCGUCCCCUCGGUAAUGGCGACUGGGACCCA [U46G A78C] | 0.277 |
| GGCCGGCAUGGUCCCAGCCUCCUCGCUGGCGCCGGCUGGGCAACAGUCCGAGGGGACCGUCCCCUCGGUAAUGGCGUAUGGGACCCA [U46G A77U] | 0.0831 |

| Variant | self-cleavage |
| --- | --- |
| GGCCGGCAUGGUCCCAGCCUCCUCGCUGGCGCCGGCUGGGCAACAGUCCGAGGGGACCGUCCCCUCGGUAAUGGCGGAUGGGACCCA [U46G A77G] | 0.415 |
| GGCCGGCAUGGUCCCAGCCUCCUCGCUGGCGCCGGCUGGGCAACAGUCCGAGGGGACCGUCCCCUCGGUAAUGGCGAAUGGGACCUA [U46G C86U] | 0.277 |
| GGCCGGCAUGGUCCCAGCCUCCUCGCUGGCGCCGGCUGGGCAACAGUCCGAGGGGACCGUCCCCUCGGUAAUGGCGAAUGGGACCAA [U46G C86A] | 0.684 |
| GGCCGGCAUGGUCCCAGCCUCCUCGCUGGCGCCGGCUGGGCAACAGUCCGAGGGGACCUUCCCCUCGGUAAUGGCGAAUGGGACCCA [U46G G59U] | 0.902 |
| GGCCGGCAUGGUCCCAGCCUCCUCGCUGGCGCCGGCUGGGCAACAGUCCGAGGGGACCGUCCCCUCGGUCAUGGCGAAUGGGACCCA [U46G A70C] | 0.665 |
| GGCCGGCAUGGUCCCAGCCUCCUCGCUGGCGCCGGCUGGGCAACAGUCCGAGGGGACCGUCCCCUCGGUUAUGGCGAAUGGGACCCA [U46G A70U] | 0.997 |
| GGCCGGCAUGGUCCCAGCCUCCUCGCUGGCGCCGGCUGGGCAACAGUCCGAGGGGACCGUCCCCUCGGUGAUGGCGAAUGGGACCCA [U46G A70G] | 0.511 |
| GGCCGGCAUGGUCCCAGCCUCCUCGCUGGCGCCGGCUGGGCAACACUCCGAGGGGACCGUCCCCUCGGUAAUGGCGAAGGGGACCCA [U46C U79G] | 0.554 |
| GGCCGGCAUGGUCCCAGCCUCCUCGCUGGCGCCGGCUGGGCAACACUCCGAGGGGACCGUCCCCUCGGUAAUGGCGAACGGGACCCA [U46C U79C] | 0.432 |
| GGCCGGCAUGGUCCCAGCCUCCUCGCUGGCGCCGGCUGGGCAACACUCCGAGGGGACCGUCCCCUCGGUAAUGGCGAAUGGCACCCA [U46C G82C] | 0.243 |
| GGCCGGCAUGGUCCCAGCCUCCUCGCUGGCGCCGGCUGGGCAACACUCCGAGGGGACCGUCCCCUCGGUAAUGGCGAAUGGAACCCA [U46C G82A] | 0.224 |
| GGCCGGCAUGGUCCCAGCCUCCUCGCUGGCGCCGGCUGGGCAACAGUCCGACGGGACCGUCCCCUCGGUAAUGGCGAAUGGGACCCA [U46G G52C] | 0.429 |
| GGCCGGCAUGGUCCCAGCCUCCUCGCUGGCGCCGGCUGGGCAACAGUCCGAGGGGACCGUCCCCUCGGUAAUGGCGAAUGGGUCCCA [U46G A83U] | 0 |
| GGCCGGCAUGGUCCCAGCCUCCUCGCUGGCGCCGGCUGGGCAACAGUCCGAGGGGACCGUCCCCUCGGUAAUGGCGAAUGGGCCCCA [U46G A83C] | 0.293 |
| GGCCGGCAUGGUCCCAGCCUCCUCGCUGGCGCCGGCUGGGCAACACUCCGAGGGGACCGUCCCCUCGGUAAUGGCGAAUCGGACCCA [U46C G80C] | 0.399 |
| GGCCGGCAUGGUCCCAGCCUCCUCGCUGGCGCCGGCUGGGCAACACUCCGAGGGGACCGUCCCCUCGGUAAUGGCGAAUUGGACCCA [U46C G80U] | 0.0903 |
